Source: article PMC3460915, “Identification, Characterization and Application of a G-Quadruplex Structured DNA Aptamer against Cancer Biomarker Protein Anterior Gradient Homolog 2”

Tests used:
Thrombin = Thrombin (UniProt P00734;P00734 328-363;364-622); experiment: SA-bead flow cytometry (allosteric beacon); 500 nM; SA beads; 1x PBS (137 mM NaCl, 2.7 mM KCl, 10 mM Na2HPO4, 2.0 mM KH2PO4), pH 7.4, 37 C, 45 min, 200 uL; K+ varied in Fig 4
Streptavidin (SA beads) = Streptavidin (SA beads) (UniProt P22629 25-183); experiment: SA-bead flow cytometry (allosteric beacon); with AGR2; 1x PBS (137 mM NaCl, 2.7 mM KCl, 10 mM Na2HPO4, 2.0 mM KH2PO4), pH 7.4, 37 C, 45 min, 200 uL; K+ varied in Fig 4; conditions: protein: commercial; chain copies: 4; label: 3' FAM; hairpin
[1] = biological target: T1, GST-AGR2 (on GSH-Sepharose beads) (UniProt O95994 21-175); experiment: SA-bead flow cytometry (allosteric beacon); SA beads; 100 nM AGR2 detected; 1x PBS (137 mM NaCl, 2.7 mM KCl, 10 mM Na2HPO4, 2.0 mM KH2PO4), pH 7.4, 37 C, 45 min, 200 uL; K+ varied in Fig 4; conditions: protein: recombinant; (pGEX-GST-AGR2); label: 3' FAM; hairpin
[2] = biological target: T1, GST-AGR2 (on GSH-Sepharose beads); experiment: flow cytometry bead binding; 1x PBS (137 mM NaCl, 2.7 mM KCl, 10 mM Na2HPO4, 2.0 mM KH2PO4), pH 7.4, 37 C, 45 min, 200 uL; K+ varied in Fig 4; conditions: protein: recombinant, (pGEX-GST-AGR2)
[3] = biological target: T1, GST-AGR2 (on GSH-Sepharose beads); experiment: flow cytometry bead binding; with K+; 1x PBS (137 mM NaCl, 2.7 mM KCl, 10 mM Na2HPO4, 2.0 mM KH2PO4), pH 7.4, 37 C, 45 min, 200 uL; K+ varied in Fig 4; conditions: protein: recombinant; (pGEX-GST-AGR2); label: 3' FAM; intramolecular parallel G4
[4] = biological target: GST (on GSH-Sepharose beads) (UniProt P08515 1-218); experiment: flow cytometry bead binding; 1x PBS (137 mM NaCl, 2.7 mM KCl, 10 mM Na2HPO4, 2.0 mM KH2PO4), pH 7.4, 37 C, 45 min, 200 uL; K+ varied in Fig 4; conditions: protein: recombinant; chain copies: 2; label: FAM
Sequence of GST (on GSH-Sepharose beads) (P08515 whole entry): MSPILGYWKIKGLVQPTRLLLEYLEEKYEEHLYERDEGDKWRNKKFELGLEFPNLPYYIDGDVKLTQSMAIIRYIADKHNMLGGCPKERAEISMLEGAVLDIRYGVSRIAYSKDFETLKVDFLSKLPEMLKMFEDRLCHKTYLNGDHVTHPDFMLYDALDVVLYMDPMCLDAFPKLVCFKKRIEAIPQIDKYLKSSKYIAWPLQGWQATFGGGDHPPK

T1 sequence (O95994 21-175): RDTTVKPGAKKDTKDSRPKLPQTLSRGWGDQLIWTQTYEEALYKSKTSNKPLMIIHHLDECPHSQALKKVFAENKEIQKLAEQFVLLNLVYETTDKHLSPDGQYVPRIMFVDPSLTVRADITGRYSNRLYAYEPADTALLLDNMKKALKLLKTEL
Sequence of Streptavidin (SA beads) (P22629 25-183): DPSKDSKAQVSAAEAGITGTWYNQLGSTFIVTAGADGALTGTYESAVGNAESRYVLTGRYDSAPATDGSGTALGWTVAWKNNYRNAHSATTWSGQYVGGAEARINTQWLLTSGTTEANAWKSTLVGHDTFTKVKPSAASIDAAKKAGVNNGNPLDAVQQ

B1: AGR2-aMB (structured_DNA)
DNA: CGACGCACCGATCGCAGGTTCGGGATTTTCGGGTGGGAGTTGTGGGGGGGGGTGGGAGGGTT
B1: no binding (Thrombin); binds (Streptavidin (SA beads)); binds [1].

B2: C14B0 (ssDNA)
DNA: CGGGTGGGAGTTGTGGGGGGGGGTGGGAGGGTTCTTTGTTTGATCTTTCTCGCTGCCTGGCCCTAGAGTG
Binder B2 has a Kd ([2]; label: FAM) of 8.5 ± 3.6 nM.

For CGGGTGGGAGTTGTGGGGGGGGGTGGGAGGGTT (structured_DNA) [C14B1], the Kd ([2]; label: 3' FAM, intramolecular parallel G4) was 19.1 ± 5.1 nM and the Kd [3] was 6.2 ± 1.9 nM.

B3: C14C (ssDNA)
DNA: TCTCGGACGCGTGTGGTCGGCGTTGGGTGGGGGTGGCGGGGGTAGGGTGGTAGGTCGCTAAAATGCTCGCTGCCTGGCCCTAGAGTG
Work on B3 yielded a Kd ([2]; label: FAM) of 44.6 ± 7 nM.

B4: C14A (ssDNA)
DNA: TCTCGGACGCGTGTGGTCGGGGGGGCGGGGGTTGGGTGGTGGCTTCATTTTGTTTCACGTCGTCCTCGCTGCCTGGCCCTAGAGTG
B4 showed a Kd ([2]; label: FAM) of 20.9 ± 5.2 nM.

B5: C14D (ssDNA)
DNA: TCTCGGACGCGTGTGGTCGGTGCATTCTTCTGTTCTTTTAGTGTTTTGTGTTGTATGTTCTTATCCTCGCTGCCTGGCCCTAGAGTG
B5 gave a Kd ([2]; label: FAM) of 48.4 ± 15.6 nM.

B6: C14B (ssDNA)
DNA: TCTCGGACGCGTGTGGTCGGGTGGGAGTTGTGGGGGGGGGTGGGAGGGTTCTTTGTTTGATCTTTCTCGCTGCCTGGCCCTAGAGTG
B6 was tested, and the binding result [4] was “no binding” and the Kd ([2]; label: FAM) was 13.1 ± 7.2 nM.
